This note sets out measurements from the DeepSol protein solubility set.

This data set is described as follows: soluble on expression in E. coli; label from the status in PepcDB or PDB records.
In the case of “MSQFSKDQVQDMYYLSPMQEGMLFHAILNPGQSFYLEQITMKVKGSLNIKCLEESMNVIMDRYDVFRTVFIHEKVKRPVQVVLKKRQFHIEEIDLTHLTGSEQTAKINEYKEQDKIRGFDLTRDIPMRAAIFKKAEESFEWVWSYHHIILDGWCFGIVVQDLFKVYNALREQKPYSLPPVKPYKDYIKWLEKQDKQASLRYWREYLEGFEGQTTFAEQRKKQKDGYEPKELLFSPSEAETKAFTELAKSQHTTLSTALQAVWSVLISRYQQSGDLAFGTVVSGRPAEIKGVEHMVGLFINVVPRRVKLSEGITFNGLLKRLQEQSLQSEPHQYVPLYDIQSQADQPKLIDHIIVFENYPLQDAKNEESSENGFDMVDVHVFEKSNYDLNLMASPGDEMLIKLAYNENVFDEAFILRLKSQLLTAIQQLIQNPDQPVSTINLVDDREREFLLTGLNPPAQAHETKPLTYWFKEAVNANPDAPALTYSGQTLSYRELDEEANRIARRLQKHGAGKGSVVALYTKRSLELVIGILGVLKAGAAYLPVDPKLPEDRISYMLADSAAACLLTHQEMKEQAAELPYTGTTLFIDDQTRFEEQASDPATAIDPNDPAYIMYTSGTTGKPKGNITTHANIQGLVKHVDYMAFSDQDTFLSVSNYAFDAFTFDFYASMLNAARLIIADEHTLLDTERLTDLILQENVNVMFATTALFNLLTDAGEDWMKGLRCILFGGERASVPHVRKALRIMGPGKLINCYGPTEGTVFATAHVVHDLPDSISSLPIGKPISNASVYILNEQSQLQPFGAVGELCISGMGVSKGYVNRADLTKEKFIENPFKPGETLYRTGDLARWLPDGTIEYAGRIDDQVKIRGHRIELEEIEKQLQEYPGVKDAVVVADRHESGDASINAYLVNRTQLSAEDVKAHLKKQLPAYMVPQTFTFLDELPLTTNGKVNKRLLPKPDQDQLAEEWIGPRNEMEETIAQIWSEVLGRKQIGIHDDFFALGGHALKAMTAASRIKKELGIDLPVKLLFEAPTIAGISAYLKNGGSDGLQDVTIMNQDQEQIIFAFPPVLGYGLMYQNLSSRLPSYKLCAFDFIEEEDRLDRYADLIQKLQPEGPLTLFGYSAGCSLAFEAAKKLEEQGRIVQRIIMVDSYKKQGVSDLDGRTVESDVEALMNVNRDNEALNSEAVKHGLKQKTHAFYSYYVNLISTGQVKADIDLLTSGADFDIPEWLASWEEATTGVYRMKRGFGTHAEMLQGETLDRNAEILLEFLNTQTVTVSKGEFEAYVEQKLISEEDLNSAVDHHHHHH”, the “soluble on expression in E. coli” value was “soluble”. For “MSQHLVPEAKNGLSKFKNEVANEMGVPFSDYNGDLSSRQCGSVGGEMVKRMVEKYEQSMK”, the “soluble on expression in E. coli” value is given as “soluble”.

Regarding “MSQLLKLKSQYDDECTVTRHYEGKGRNAGRLGAVGCKNRHGEFRIGSGFKDKDRDNPPKIGTLITYRYRGFTRKGTPKFATFVRVRTLEHHHHHH”, the “soluble on expression in E. coli” value was “not soluble”. In the case of “MSQLTEFISCIPVVNEEQNEEDERGLCKIQIEDGAMLETLDENSLSGLRIEKMLVSEGTGIFSKSSFGINDLRIFTGENIDEESKKYVWYELLKMLTGHKVYIASLDEKVVFTKWTCRMQDDEVWKVVMELESSAIIRKIAELTLHPVKKGEIDLFEMADKLYKDICCVNDSYRNIKESDSSNRNRVEQLARERELLDKLLETRDERTRAMMVTLLNEKKKKIRELHEILRQNNIKLSDDDVLDSA”, the “soluble on expression in E. coli” value is reported as “soluble”. “MSQLVECVPNFSEGNNQEVIDAISQAISQTPGCVLLDVDAGPSTNRTVYTFVGQPECVVEGALSAARTASQLIDMRKHKGEHPRMGALDVCPFIPVRGVSMDECVLCAKAFGQRLAEELNVPVYLYGEAAQMPSRQTLPAIRAGEYEALPEKLKQAEWVPDFGPSSFVPSWGATVTGARKFLIAFNINLLSTKEQAHRIALNLREQGRGKDQPGRLKKVQGIGWYLEEKNLAQVSTNLLDFEVTALHTVYEEARREAQELNLPVVGSQLVGLVPLKALLDAAAFYCDKEKLFVLEEEHRIRLVVNRLGLDSLAPFDPKERIIEYLVPDSGPEQSLLDASLRAFVREVGARSAAPGGGSVAAAVAALGAALASMVGQMTYGRRQFDHLDSTMRRLIPPFHAASAQLTSLVDADARAFAACLGAIKLPKNTPEERDRRTCALQEGLRQAVAVPLKLAETVSQLWPALQELAQCGNLSCLSDLQVAAKALETGVFGAYFNVLINLKDMTDDVFKEKTRHRISSLLQEAKTQAALVLGSLEARKE”: the “soluble on expression in E. coli” value is recorded as “soluble”. Regarding “MSQLVYFSSSSENTQRFIERLGLPAVRIPLNERERIQVDEPYILIVPSYGGGGTAGAVPRQVIRFLNDEHNRALLRGVIASGNRNFGEAYGRAGDVIARKCGVPWLYRFELMGTQSDIENVRKGVTEFWQRQPQNA”, the “soluble on expression in E. coli” value was “soluble”.

On to “MSQPIQFESNIALINYPKQAAFGRTLPKNKIYEHSGANTRLKDLFIEQVELIVWRYKLAPETINLPARPGVPELQIFSIQLKTSELNLDVLHCIDGAVQFPIIFELSFDGRTKVIAAYKRPNESDASRWVLSSYFATAWLPSDSERAAIPLALDLGGLYEQVLHRLIPMPARPQESLADLVARVEMVAAKQREVEKAASRLAKEKQFNRKVEINAQLRQLKNELEELTGRENA”, for which the “soluble on expression in E. coli” value is on record as “not soluble”. Take “MSQPLNVAVVGATGSVGEALVGLLDERDFPLHRLHLLASAESAGQRMGFAESSLRVGDVDSFDFSSVGLAFFAAAAEVSRAHAERARAAGCSVIDLSGALEPSVAPPVMVSVNAERLASQAAPFLLSSPCAVAAELCEVLAPLLATLDCRQLNLTACLSVSSLGREGVKELARQTAELLNARPLEPRLFDRQIAFNLLAQVGAVDAEGHSAIERRIFAEVQALLGERIGPLNVTCIQAPVFFGDSLSVTLQCAEPVDLAAVTRVLDATKGIEWVGEGDYPTVVGDALGQDETYVGRVRAGQADPCQVNLWIVSDNVRKGAALNAVLLGELLIKHYL”: the “soluble on expression in E. coli” value was “soluble”.

On to “MSRDARWKALLELLVERGRLDVEEAATELEVSAATIRRDFDRLAEQQMLVRTRGGAVVHGVSYELPLRYKTARRASEKQRVAQAVAALVAPGEAVGLTGGTTTTEVARALAVRADLASGTPALTVVTNALNIANELAVRPQFKIVVTGGVARAQSYELIGPLADGVLGQVTLDVAVLGVVAFDVAHGAAAHDEAEAAINRLLCERAERVVVAADSSKLGRRAFARICATESVDTLVTDGAADPELVGRFEEAGVRVVTALEHHHHHH”, for which the “soluble on expression in E. coli” value is reported as “not soluble”. Take “MSREQAILVGCQLAGVDDERFRYSMEELVSLVATANGEVVAEVTQKREAPHPATYIGKGKTEELAAIVKQLEPDVVIFNSELSPSQARNLTKMLGEVKVIDRT”: the “soluble on expression in E. coli” value was “not soluble”. As to “MSRLLALLALAPLLAGAAETTAPKPPSAFTVEAQRRVEAELPFADRADFERADRGLIRRPERLLIRNPDGSVAWQLGGYDFLLDGKPRDSINPSLQRQALLNLKYGLFEVAEGIYQVRGFDLANITFIRGDSGWIVVDTLTTPATARAAYELVSRELGERPIRTVIYSHAHADHFGGVRGLVEPQQVASGAVQIIAPAGFMEAAIKENVLAGNAMMRRATYQYGTQLPKGPQGQVDMAIGKGLARGPLSLLAPTRLIEGEGEDLVLDGVPFTFQNTPGTESPAEMNIWLPRQKALLMAENVVGTLHNLYTLRGAEVRDALGWSKYINQALHRFGRQAEVMFAVHNWPRWGNAEIVEVLEKQRDLYGYLHDQTLHLANQGVTIGQVHNRLRLPPSLDQEWYDRGYHGSVSHNARAVLNRYLGYYDGNPATLDPLSPEDSAGRYVEYMGGAERLLEQARASYARGEYRWVVEVVNRLVFAEPDNRAARELQADALEQLGYQAENAGWRNSYLSAAYELRHGVPRDQPTMKAGSADALAAMDTGLLFDYLGVRLDAGAAEGKALSINLRLPDIGENYLLELKNSHLNNLRGVQSEDAGQTVSIDRADLNRLLLKEVSAVRLVFEGKLKSSGNPLLLGQLFGMLGDFDFWFDIVTPAAKSEG”, the “soluble on expression in E. coli” value is listed as “soluble”.

As for “MSRNNEELQGISLLGNQKTQYPTGYAPEILEAFDNKHPDNDYFVKFVCPEFTSLCPMTGQPDFATIYIRYIPHIKMVESKSLKLYLFSFRNHGDFHEDCVNIIMKDLIALMDPKYIEVFGEFTPRGGIAIHPFANYGKAGTEFETLARKRLFEHDAQ”, the “soluble on expression in E. coli” value is “not soluble”. Take “MSRRNATSFVDNNTLTSSEGLTSGVFSWALERLPTCLREELQLPLTDTGSCWQTN”: the “soluble on expression in E. coli” value is “not soluble”.
